Patent US20130040894A1, “INHIBITION OR ACTIVATION OF SERINE/THREONINE ULK3 KINASE ACTIVITY” (TALLINN UNIVERSITY OF TECHNOLOGY, priority 2009, published 2013)

Experiments:
FLAG-tagged GLI2, P10070 = target: T1, FLAG-tagged GLI2, P10070
T1 chain: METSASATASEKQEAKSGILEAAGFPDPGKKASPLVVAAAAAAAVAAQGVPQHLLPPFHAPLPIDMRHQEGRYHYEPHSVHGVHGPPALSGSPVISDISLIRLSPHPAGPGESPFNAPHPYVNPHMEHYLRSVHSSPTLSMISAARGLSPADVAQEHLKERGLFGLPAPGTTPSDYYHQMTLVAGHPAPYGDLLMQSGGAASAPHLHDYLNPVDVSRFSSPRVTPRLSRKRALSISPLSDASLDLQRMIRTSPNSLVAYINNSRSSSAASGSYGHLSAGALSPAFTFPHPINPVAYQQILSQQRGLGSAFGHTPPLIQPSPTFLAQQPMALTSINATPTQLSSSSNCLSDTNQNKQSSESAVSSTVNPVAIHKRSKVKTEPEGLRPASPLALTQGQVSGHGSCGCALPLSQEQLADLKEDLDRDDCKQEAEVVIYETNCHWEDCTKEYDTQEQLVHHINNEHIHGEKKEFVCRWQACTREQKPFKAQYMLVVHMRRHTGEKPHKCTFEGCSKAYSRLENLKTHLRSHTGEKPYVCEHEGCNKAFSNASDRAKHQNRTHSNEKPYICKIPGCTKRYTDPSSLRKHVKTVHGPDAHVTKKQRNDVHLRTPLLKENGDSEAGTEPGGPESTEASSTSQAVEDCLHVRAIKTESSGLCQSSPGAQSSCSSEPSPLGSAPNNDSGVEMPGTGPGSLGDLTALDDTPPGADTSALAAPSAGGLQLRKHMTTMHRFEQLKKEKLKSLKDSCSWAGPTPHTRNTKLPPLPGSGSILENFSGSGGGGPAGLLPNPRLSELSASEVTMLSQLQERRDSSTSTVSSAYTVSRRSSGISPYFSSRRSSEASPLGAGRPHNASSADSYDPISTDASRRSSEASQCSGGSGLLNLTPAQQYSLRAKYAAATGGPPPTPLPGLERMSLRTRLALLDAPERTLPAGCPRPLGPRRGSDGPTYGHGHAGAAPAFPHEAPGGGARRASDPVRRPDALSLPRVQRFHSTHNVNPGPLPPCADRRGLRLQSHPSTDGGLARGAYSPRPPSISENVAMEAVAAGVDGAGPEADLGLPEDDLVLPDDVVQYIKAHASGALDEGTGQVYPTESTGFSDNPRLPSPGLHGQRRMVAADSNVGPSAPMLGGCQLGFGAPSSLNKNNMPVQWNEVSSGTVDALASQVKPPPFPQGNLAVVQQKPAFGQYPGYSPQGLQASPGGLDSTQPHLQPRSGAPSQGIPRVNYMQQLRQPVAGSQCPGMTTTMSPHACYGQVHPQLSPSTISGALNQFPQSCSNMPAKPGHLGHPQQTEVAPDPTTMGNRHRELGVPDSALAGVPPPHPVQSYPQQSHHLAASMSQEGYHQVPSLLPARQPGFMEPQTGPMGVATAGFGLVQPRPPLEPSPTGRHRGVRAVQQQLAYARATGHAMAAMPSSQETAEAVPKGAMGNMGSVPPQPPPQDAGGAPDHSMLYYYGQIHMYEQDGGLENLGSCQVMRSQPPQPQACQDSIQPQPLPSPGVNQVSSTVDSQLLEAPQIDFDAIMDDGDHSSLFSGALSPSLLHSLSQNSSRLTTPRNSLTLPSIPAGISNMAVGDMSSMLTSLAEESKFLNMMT

[1] = tested on: GLI-dependent firefly luciferase activity in Shh-LIGHT2 cells; test: GLI-dependent luciferase assay in Shh-L2 cells; type: cell-based, mouse
Method: Cells were transfected by the expression constructs or respective empty vectors using Polyethylenimine transfection agent (PEI) (Inbio) and as described in [28]. We used 0.25 μg of cDNA per 1 cm^2 of plate surface area for transfections. After 3 h of transfection HEK293, NIH3T3 and Cos1 cells were propagated in the normal growth medium for 48 h. Prior the further analysis the cells were washed twice with PBS. Post-transfectional Shh-L2 cells were grown in the normal growth medium for 24 h and for additional 24 h in the Light medium containing 0.25% FBS, washed once with PBS, lysed in Passive Lysis Buffer (Promega, Madison Wis., USA) (70 ul per well of 24-well plate format) and subjected to luciferase assay.
Luciferase assay was performed as previously described. Briefly, firefly luciferase activity of 12 μl of the Shh-L2 cells lysate was measured using Luciferase Assay Kit (Promega) and galactosidase activity was quantified using Galacto-LightPlus kit (Tropix, Bedford Mass., USA) according to the manufacturer's instructions. Chemiluminicence was measured using Ascent FL Fluoroscan (Thermo Electron Corporation, Waltham Mass., USA) according to the manufacturer's instructions.
We cotransfected the constructs together with GLI-expressing plasmids (or respective empty vector) into Shh-L2 cells and assessed their effect on GLI-dependent firefly luciferase activity. The obtained data was normalized with β-galactosidase values. […] It was able to stimulate the luciferase activity 3.8 times and enhanced the transcriptional activity of over expressed GLI1 and GLI2 approximately 2 and 3.2 times, respectively. The potency of STK36 in the assay was much lower.
In order to examine if the kinase activity of ULK3 is required for the luciferase reporter activation we tested the supposed kinase-deficient variants of ULK3, ULK3(K44R) and ULK3(K139R) in the same assay. […] We also tested the effect of ULK3 and the mutants on the luciferase reporter when the SHH pathway was activated by cotransfection with pShhN (plasmid expressing biologically active part of SHH).

ULK3 = test: In vitro kinase assay, autophosphorylation; type: biochemical, human; settings: FLAG-tagged protein immunopurified from HEK293 cells, γ-P32-ATP
Method: (§1) HEK293 cells were transfected with 13.5 μg of FLAG-tagged constructs expressed GLI1, GLI2, GLI3, ULK3, ULK3(K44R), ULK3(K139R) or FLAG-CMV-4 empty vector on 10 cm plates. The cells were lysed with 0.5 ml of Lysis Buffer (50 mM Tris HCl, pH 7.4, 150 mM NaCl, 1 mM EDTA, 1% Triton X-100) containing protease inhibitor cocktail (PIC) (Roche Applied Science). The lysates were centrifuged for 15 min at 4° C. and 15000 g, and the supernatants were used for immunoprecipitation (IP). IP was performed using anti-FLAG-M2 affinity gel (Sigma-Aldrich) in batch format according to the manufacture's instructions. Immune complexes were washed three times with 500 μl of Kinase Buffer (KB) (50 mM HEPES, pH 7.4, 20 mM MgCl2, 25 μM ATP) and resuspended in 12.5 μl of KB. One fifth of the immuno-complexes was subjected to WB and the rest was used for the kinase assay.
(§2) Kinase reactions were carried out in KB in a total volume of 20 μl of in the presence of 1 μCi of [γ-^32P]ATP per reaction. We used 1 μl of the immunoprecipitated ULK3, ULK3(K44R) or ULK3(K139R) mixed with 5 μl of the GLI-M2 immunocomplexes or 5 μl of bacterially expressed and purified His-GLI1 fragments. Kinase reactions were held at 30° C. for 30 min and terminated by adding of 5 μl of 4× Laemmli Sample Buffer. Proteins were resolved by SDS-PAGE. The gel was dried at 80° C. for 2 h, and autoradiography was performed using Bio-Rad Personal Molecular Imager FX.
To test if ULK3 has an autophosphorylation activity, we expressed FLAG-tagged wild-type ULK3 and mutants ULK3(K44R) and ULK3(K139R) in HEK293 cells, immunopurified and subjected to in vitro kinase assay in the presence of γ-P^32-ATP.

GLI2 = test: In vitro kinase assay, phosphorylation of GLI2; type: biochemical; settings: FLAG-tagged GLI2 immunoprecipitated from HEK293 cells
Method: as §1
as §2, with “The gel was dried at 80° C. for 2 h, and autoradiography was performed using Bio-Rad Personal Molecular Imager FX.” left out

B1: FLAG-tagged ULK3(K44R) (protein)
chain: MAGPGWGPPRLDGFILTERLGSGTYATVYKAYAKKDTREVVAIRCVAKKSLNKASVENLLTEIEILKGIRHPHIVQLKDFQWDSDNIYLIMEFCAGGDLSRFIHTRRILPEKVARVFMQQLASALQFLHERNISHLDLKPQNILLSSLEKPHLKLADFGFAQHMSPWDEKHVLRGSPLYMAPEMVCQRQYDARVDLWSMGVILYEALFGQPPFASRSFSELEEKIRSNRVIELPLRPLLSRDCRDLLQRLLERDPSRRISFQDFFAHPWVDLEHMPSGESLGRATALVVQAVKKDQEGDSAAALSLYCKALDFFVPALHYEVDAQRKEAIKAKVGQYVSRAEELKAIVSSSNQALLRQGTSARDLLREMARDKPRLLAALEVASAAMAKEEAAGGEQDALDLYQHSLGELLLLLAAEPPGRRRELLHTEVQNLMARAEYLKEQVKMRESRWEADTLDKEGLSESVRSSCTLQ
in vitro kinase assay, phosphorylation signal (32P autoradiography) (FLAG-tagged GLI2, P10070): The mutant ULK3(K44R) could slightly phosphorylate GLI2 (data not shown)
enhancement of transcriptional activity of overexpressed GLI1 ([1]; cotransfected with GLI1, Shh-L2 cells): neither of the mutants had an effect
enhancement of transcriptional activity of overexpressed GLI2 ([1]; cotransfected with GLI2, Shh-L2 cells): some residual activity
induction of luciferase activity with activated SHH pathway ([1]; cotransfection with pShhN, Shh-L2 cells): 1.7 times
autophosphorylation activity (ULK3): reduced efficiency in autophosphorylation
phosphorylation of GLI2 (GLI2): slightly phosphorylate
